What was measured:
[1] = biological target: T1, porcine CD163, membrane-bound form on porcine pulmonary alveolar macrophage (pPAM) WT cells (porcine, UniProt Q2VL90 47-1115); assay: cell-based or functional assay
T1 sequence: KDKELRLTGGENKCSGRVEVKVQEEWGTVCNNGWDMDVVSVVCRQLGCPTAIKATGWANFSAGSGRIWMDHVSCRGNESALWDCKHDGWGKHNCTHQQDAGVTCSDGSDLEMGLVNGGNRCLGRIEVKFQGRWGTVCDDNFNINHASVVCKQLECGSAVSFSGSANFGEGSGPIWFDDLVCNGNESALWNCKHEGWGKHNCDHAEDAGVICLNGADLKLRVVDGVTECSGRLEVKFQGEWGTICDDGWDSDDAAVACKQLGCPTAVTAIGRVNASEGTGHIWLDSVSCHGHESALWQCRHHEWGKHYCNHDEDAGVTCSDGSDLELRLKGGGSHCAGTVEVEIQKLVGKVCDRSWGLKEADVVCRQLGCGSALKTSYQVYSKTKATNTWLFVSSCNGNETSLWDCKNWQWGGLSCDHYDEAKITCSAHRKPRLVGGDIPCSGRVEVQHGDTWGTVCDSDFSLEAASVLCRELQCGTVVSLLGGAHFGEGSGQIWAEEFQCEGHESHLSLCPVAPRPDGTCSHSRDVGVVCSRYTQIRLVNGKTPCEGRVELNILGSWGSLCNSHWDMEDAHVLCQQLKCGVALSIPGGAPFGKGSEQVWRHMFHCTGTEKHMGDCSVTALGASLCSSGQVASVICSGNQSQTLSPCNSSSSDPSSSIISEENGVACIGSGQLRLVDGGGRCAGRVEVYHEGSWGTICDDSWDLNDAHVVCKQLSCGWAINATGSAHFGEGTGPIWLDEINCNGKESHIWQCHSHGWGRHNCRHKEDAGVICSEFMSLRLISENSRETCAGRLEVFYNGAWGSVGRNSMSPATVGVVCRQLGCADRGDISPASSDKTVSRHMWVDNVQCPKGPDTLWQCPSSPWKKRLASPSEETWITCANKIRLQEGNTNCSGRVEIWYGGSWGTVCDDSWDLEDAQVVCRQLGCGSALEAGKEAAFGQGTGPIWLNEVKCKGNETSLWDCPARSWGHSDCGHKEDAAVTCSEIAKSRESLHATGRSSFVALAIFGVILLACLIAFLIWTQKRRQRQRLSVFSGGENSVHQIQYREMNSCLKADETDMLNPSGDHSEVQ

[2] = biological target: T1, porcine CD163, membrane-bound form on …; assay: cell-based or functional assay; remark: listed apart in the source
[3] = biological target: T1, porcine CD163, membrane-bound form on …; assay: dose-response FACS on pPAM WT cells, anti-FLAG-biotin and streptavidin R-PE detection
Experimental: Biparatopic and triparatopic antibody constructs in PBS (pH7.4) were diluted in a 3-fold serial dilutions from 150 nM down to 0.023 nM in FACS buffer (0.5% FBS, 0.5 mM EDTA in 1×PBS pH7.4). Biparatopic and triparatopic candidates were incubated with anti-FLAG-Biotin (Sigma, Cat. nr. F9291), for 30 min on ice with shaking. This mixture was added to pPAM WT cells and incubated for 60 min on ice with gentle shaking. Cells were washed 3×with 150 μl/well of FACS buffer and incubated with 50 μl/well of the secondary detection reagent Streptavidin R-P.E. conjugate antibody (Invitrogen, Cat. nr. SA10044) for 30 min on ice with shaking and protected from light. Cells were then washed 3× with 150 μl/well of FACS Buffer and resuspended in 50 μl/well of FACS buffer to be measured on a FACS machine (Attune™ N×T), and a total of 10000 cells were acquired per sample.

[4] = biological target: T2, porcine CD163 with deletion of SRCR domain 5, on pPAMΔ5 cells (porcine, UniProt Q2VL90 47-1115); assay: P.E. FACS screening on pPAMΔ5 cells
T2 construct: also called pPAMΔ5 domain cells; pPAMΔ5 WT cells
T2 sequence: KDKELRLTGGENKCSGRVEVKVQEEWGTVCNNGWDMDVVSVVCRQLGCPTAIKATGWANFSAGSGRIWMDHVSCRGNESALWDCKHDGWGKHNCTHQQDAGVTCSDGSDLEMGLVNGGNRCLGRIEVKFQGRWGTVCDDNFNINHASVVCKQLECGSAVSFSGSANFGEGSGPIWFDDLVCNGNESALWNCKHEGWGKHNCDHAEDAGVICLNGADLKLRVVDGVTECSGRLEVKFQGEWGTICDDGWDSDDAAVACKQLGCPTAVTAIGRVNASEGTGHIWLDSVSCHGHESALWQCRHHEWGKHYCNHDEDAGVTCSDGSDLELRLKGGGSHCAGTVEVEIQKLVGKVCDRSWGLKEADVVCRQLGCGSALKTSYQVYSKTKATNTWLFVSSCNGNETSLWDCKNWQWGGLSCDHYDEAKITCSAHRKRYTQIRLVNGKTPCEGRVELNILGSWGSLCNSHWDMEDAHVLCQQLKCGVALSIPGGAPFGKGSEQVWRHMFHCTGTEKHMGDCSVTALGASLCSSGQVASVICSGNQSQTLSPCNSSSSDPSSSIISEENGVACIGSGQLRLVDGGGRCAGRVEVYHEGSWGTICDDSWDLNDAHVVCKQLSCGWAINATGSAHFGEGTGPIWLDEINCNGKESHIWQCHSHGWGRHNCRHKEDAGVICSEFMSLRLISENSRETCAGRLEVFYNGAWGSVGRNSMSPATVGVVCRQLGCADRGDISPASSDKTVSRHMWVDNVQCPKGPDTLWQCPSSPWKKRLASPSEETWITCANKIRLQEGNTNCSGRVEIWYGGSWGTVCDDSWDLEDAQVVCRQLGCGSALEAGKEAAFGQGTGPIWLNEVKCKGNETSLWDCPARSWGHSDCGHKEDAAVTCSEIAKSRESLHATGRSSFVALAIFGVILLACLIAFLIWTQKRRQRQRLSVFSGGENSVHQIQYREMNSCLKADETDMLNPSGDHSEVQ

[5] = biological target: T1, porcine CD163, membrane-bound form on …; assay: P.E. FACS screening on pPAM WT cells

B1: 17B11 + 03E11 + 03D03 2(G4S) triparatopic VHH construct (bispecific antibody)
chain: QVQLVESGGGLVQAGGSLRLSCAASGRTFSSYAMGWFRQTPGKDREFVARIGWTGGTTIYADSVKGRFTISRDNAKNTVYLQMNSLKPEDTAVYYCAADQAGWRTAGVRNTYEYDYWGQGTQVTVSSGGGGSGGGGSQVQLQESGGGLVQVGSSLRLSCVTSGRTPSRYVMGWFRQAPGQEREFVAAISWSGRAPYADSVKGRFTISRDNAKNTVYLQMNSLKPEDTGVYYCAGGEGAIKWTTLDAYDYWGQGTQVTVSSGGGGSGGGGSQLQLVESGGGLVQPGGSLRLSCAASGFTLDDYTIGWFRQAPGKEREGVSCINSITSNTYYADSVKGRFTISRDNAKNTVYLQMNSLTAEDTAIYYCAADSGLFSGSSCLKYRAMRFGSWGQGTQVTVSS
notes: Triparatopic; also called Tri-10; Triparatopic-10; not shown: FLAG and His tags
- IC50, PRRSV1 LT3 infection assay, high CD163 porcine serum [1]: 4.02 nM
- IC50, PRRSV1 LT3 infection assay, low CD163 porcine serum [1]: 3.41 nM
- IC50, PRRSV2 strain MN184 infection assay, 10% FBS [2]: 2.84 nM
- IC50, PRRSV2 strain NA174 infection assay, high CD163 porcine serum [2]: 7.6 nM
- IC50, PRRSV2 strain NA174 infection assay, low CD163 porcine serum [2]: 3.94 nM
- EC50 [3]: 11.6 nM

B2: Clone 19-H03E11 VHH antibody (VHH)
VHH: QVQLQESGGGLVQVGSSLRLSCVTSGRTPSRYVMGWFRQAPGQEREFVAAISWSGRAPYADSVKGRFTISRDNAKNTVYLQMNSLKPEDTGVYYCAGGEGAIKWTTLDAYDYWGQGTQVTVSS
notes: Tested as periplasmic extract in ELISA and FACS screening; also called VHH 019 (3E11)
- binding result [4]: no binding
- binding result [5]: binds

B3: Clone 17-H03D03 VHH antibody (VHH)
VHH: QLQLVESGGGLVQPGGSLRLSCAASGFTLDDYTIGWFRQAPGKEREGVSCINSITSNTYYADSVKGRFTISRDNAKNTVYLQMNSLTAEDTAIYYCAADSGLFSGSSCLKYRAMRFGSWGQGTQVTVSS
notes: Tested as periplasmic extract in ELISA and FACS screening; also called VHH 017 (3D03)
- binding result [4]: no binding
- binding result [5]: binds

— patent US20260085129A1 (ECO ANIMAL HEALTH, published 2026)
